In patent US20210292393A1 (published 2021):

What was measured:
[1] = target: T1, SARS-CoV-2 full length spike protein (wild type) (SARS-CoV-2, UniProt P0DTC2 14-1273); experiment: flow cytometry, CHO cells expressing full-length wild-type SARS-CoV-2 spike
T1 construct: also called SARS-CoV-2 spike; S protein

[2] = target: T2, SARS-CoV-2 full length spike protein (wild type), expressed on the surface of transiently transfected CHO … (SARS-CoV-2, UniProt P0DTC2 14-1273)
[3] = target: T2, SARS-CoV-2 full length spike protein …; experiment: flow cytometry, CHO cells with full-length WT SARS-CoV-2 spike
[4] = target: T3, SARS-CoV-2 full length spike protein (wild-type), conjugated to optically encoded beads (SARS-CoV-2, UniProt P0DTC2 14-1208); experiment: multiplexed bead flow cytometry, column D
T3 construct: also called SARS-CoV-2 spike (S) protein; full-length trimeric SARS-CoV-2 spike protein

[5] = target: SARS-CoV-2 spike protein on infectious SARS-CoV-2 virus, Italy-INMI1 isolate (SARS-CoV-2, UniProt P0DTC2 14-1273); experiment: cell-based or functional assay
[6] = target: T1, SARS-CoV-2 full length spike protein …
[7] = target: T4, SARS-CoV-2 full length spike protein, wild type, expressed on the surface of transiently transfected CHO cells (SARS-CoV-2, UniProt P0DTC2 14-1273); experiment: flow cytometry, CHO cells expressing full-length WT spike
T4 construct: also called SARS-CoV-2 spike (S) protein; Wild-Type SARS-CoV-2

B1: antibody 290 (antibody, V domains shown)
VH: QVHLVQSGAEVKKPGASVKVSCAASGYTFNNYGVSWVRQAPGQGLEWMGWISASNGNTKYAQNLQGRVTMTTDTSTSTAYMELRSLRSDDTAVYYCARDLVGPTAPNYYYGMDVWGQGTAVTVSS
VL: QSVLTQPPSVSGAPGQRVTISCTGSSSSIGAGYDVHWYQQLPGTAPKLLIYANSNRPSGVPDRLSGSKSGTSASLAITGLQAEDEADYYCQSYDSSLSGYVFGTGTKVTVL
- binding result [1]: no binding

B2: antibody 450 (antibody, V domains shown)
VH: EVQLVESGGGLVQPGGSLRLSCAASEFTFSSYWMSWVRQAPGKGLEWVANIKQDGSEKYYVDSVKGRFTISRDNAKNSLYLQMNSLRAEDTAVYYCARVGEYSGYDLFFDYWGQGTLVTVSS
VL: NFMLTQPHSVSESPGKTVTISYTGSSGSIASNYVQWYQQRPGSAPTTVIYEDNQRPSGVPDRFSGSIDSSSNSASLTISGLKTEDEADYYCQSYDSSNQGVFGGGTKLTVL
- median fluorescence intensity, fold over isotype control [2]: 0.85 fold over isotype
- binding result [3]: no binding

B3: antibody 510 (antibody, V domains shown)
VH: QVQLQESGPGLVKPSQTLSLTCTVSGGSISSGSYYWSWIRQPAGKGLEWIGRIYTSGSTNYNPSLKSRVTISVDTSKNQFSLKLSSVTAADTAVYYCAREGQWLYRFDYWGQGTLVTVSS
VL: QSALTQPASVSGSPGQSITISCTGTSSDVGNYDLVSWYQQHPGKAPKLVIYGVTKRPSGVSNRFSGSKSGNTASLTISGLQAEDEADYYCCSYATGDTSVFGTGTKVTVL
- binding result [4]: no binding

B4: mAb 555 (antibody, V domains shown)
VH: QVQLVQSGAEVKKPGSSVKVSCKASGGTFSNYAISWVRQAPGQGLEWMGRIIPILGIANYAQKFQGRVTITADKSTSTAYMELSSLRSEDTAVYYCARGYYEARHYYYYYAMDVWGQGTAVTVSS
VL: not shown
- IC50, live virus neutralization of Italy-INMI1 isolate; Lab 2, plaque reduction [5]: 0.05 µg/mL

B5: antibody 514 (antibody, V domains shown)
VH: EVQLVQSGAEVKKPGATVKISCKVSGYTFTDYYMHWVQQAPGKGLEWMGLVDPEDGETIYAEKFQGRVTITADTSTDTAYMELSSLRSEDTAVYYCATDCKYDILTGHYSAGYYYYGMDVWGQGTTVTVSS
VL: DIQMTQSPSSLSASVGDRVTITCRASQGISNYLAWFQQKPGKAPKSLIYAASSLQSGVPSKFSGSGSGTDFTLTISSLQPEDFATYYCQQYNSYPFTFGGGTKVEIK
- binding result [4]: no binding

B6: antibody 541 (antibody, V domains shown)
VH: QVQLVQSGAEVKKPGASVKVSCKASGYTFTSYYVHWVRQAPGQSLEWMGVISPSTGSTTYAQNFQGRVTMTRDTSTTTVYMELSSLRSEDTAVYYCARDDYYDSTRYFDLWGRGTLVTVSS
VL: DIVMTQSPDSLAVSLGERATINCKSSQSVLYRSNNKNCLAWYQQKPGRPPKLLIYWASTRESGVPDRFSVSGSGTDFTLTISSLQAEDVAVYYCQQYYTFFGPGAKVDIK
- binding result [4]: no binding

B7: antibody 296 (antibody, V domains shown)
VH: EVQLVESGGGLVQPGGSLRLSCAGSGFTLSNYWMTWVRQAPGKGLEWVANINQDASRKYYGDSVKGRFSVSRDNAKNSLYLQMNSLTAEDTGFYYCVREELPSTPGSTWGQGTLVTVSS
VL: QSALTQPASVSGSPGQSITISCTGTSSDIGGYNHVSWYQQHPGKAPKLMIYGVSNRPSGVSDRFSGSKSDNTASLTISGLQAEDEADYYCSSPTSRGNKVFGTGTKVTVL
- median fluorescence intensity, fold over isotype control [6]: 1.12 fold over isotype
- binding result [1]: no binding

B8: antibody 432 (antibody, V domains shown)
VH: QVQLQESGPGLVKPSQTLSLTCTVSGGSISSGGYYWNWIRQHPGKGLEWIGYIYDSGSTYYNPSLKSRLTLSIDTSQNQFSLRRTSVTAADTAVYYCARGRQYDYDRTGLQYYFDYWGQGTLVTVSS
VL: EIVLTQSPGTLSLSPGERATLSCRASQSFSSSYLAWYQQKPGQAPRLLIYGASSRATGIPDRFSGSGSGTDFTLTISRLEPEDFAVYYCQQYGTSSLTFGGGTKVEIK
- binding result [7]: no binding
